How the values were obtained:
Assay in all cases: pull-down
[1] = biological target: T1, Schizosaccharomyces pombe Rdh54 (S. pombe, UniProt Q09772 1-811)
T1 sequence (looked up): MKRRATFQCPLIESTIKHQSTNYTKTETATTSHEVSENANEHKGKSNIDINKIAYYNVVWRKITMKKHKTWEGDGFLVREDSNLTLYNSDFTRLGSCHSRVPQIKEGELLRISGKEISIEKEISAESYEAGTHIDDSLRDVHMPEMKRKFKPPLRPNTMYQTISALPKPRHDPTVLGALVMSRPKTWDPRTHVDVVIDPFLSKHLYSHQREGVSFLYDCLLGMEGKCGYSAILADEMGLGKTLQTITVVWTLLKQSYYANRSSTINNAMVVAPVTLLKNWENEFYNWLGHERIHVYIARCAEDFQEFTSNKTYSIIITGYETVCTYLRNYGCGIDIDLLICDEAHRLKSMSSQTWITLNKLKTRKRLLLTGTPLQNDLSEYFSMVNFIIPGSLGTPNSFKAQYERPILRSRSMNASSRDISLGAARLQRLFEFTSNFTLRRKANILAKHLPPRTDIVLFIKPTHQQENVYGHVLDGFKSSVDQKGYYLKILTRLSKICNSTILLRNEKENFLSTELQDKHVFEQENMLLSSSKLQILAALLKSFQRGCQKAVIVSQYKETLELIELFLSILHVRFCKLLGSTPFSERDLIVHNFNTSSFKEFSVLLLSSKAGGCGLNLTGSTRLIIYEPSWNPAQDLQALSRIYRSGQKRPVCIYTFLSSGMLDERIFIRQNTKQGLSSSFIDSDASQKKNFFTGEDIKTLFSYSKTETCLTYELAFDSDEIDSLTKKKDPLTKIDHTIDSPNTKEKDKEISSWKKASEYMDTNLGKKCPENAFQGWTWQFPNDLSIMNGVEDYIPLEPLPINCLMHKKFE

[2] = biological target: T2, Saccharomyces cerevisiae Rdh54 (S. cerevisiae, UniProt P38086 1-958)
T2 sequence (looked up): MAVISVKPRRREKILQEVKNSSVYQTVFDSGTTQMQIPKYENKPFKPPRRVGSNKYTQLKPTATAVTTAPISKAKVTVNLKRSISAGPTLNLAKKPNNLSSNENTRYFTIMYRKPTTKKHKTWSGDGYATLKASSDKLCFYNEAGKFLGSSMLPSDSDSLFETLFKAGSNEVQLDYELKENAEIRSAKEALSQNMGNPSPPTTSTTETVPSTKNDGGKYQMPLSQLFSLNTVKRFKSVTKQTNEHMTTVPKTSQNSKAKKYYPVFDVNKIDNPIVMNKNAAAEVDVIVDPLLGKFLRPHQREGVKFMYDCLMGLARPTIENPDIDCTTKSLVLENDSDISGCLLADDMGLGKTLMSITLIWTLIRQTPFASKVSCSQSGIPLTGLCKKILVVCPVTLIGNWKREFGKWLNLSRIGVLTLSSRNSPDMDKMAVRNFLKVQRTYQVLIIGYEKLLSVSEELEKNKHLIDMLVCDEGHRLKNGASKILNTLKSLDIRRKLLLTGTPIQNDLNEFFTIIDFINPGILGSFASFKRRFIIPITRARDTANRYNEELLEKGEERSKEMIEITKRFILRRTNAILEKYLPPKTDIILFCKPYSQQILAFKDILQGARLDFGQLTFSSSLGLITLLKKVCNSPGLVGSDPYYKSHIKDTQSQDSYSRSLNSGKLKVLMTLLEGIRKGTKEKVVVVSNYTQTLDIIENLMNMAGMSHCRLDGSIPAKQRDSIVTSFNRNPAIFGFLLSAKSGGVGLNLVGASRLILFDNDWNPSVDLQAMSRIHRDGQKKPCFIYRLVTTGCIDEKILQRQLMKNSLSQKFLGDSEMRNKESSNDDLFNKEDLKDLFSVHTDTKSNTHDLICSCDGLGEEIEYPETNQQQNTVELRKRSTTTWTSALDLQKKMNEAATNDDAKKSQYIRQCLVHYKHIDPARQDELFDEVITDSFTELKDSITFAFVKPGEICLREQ

[3] = biological target: T3, Saccharomyces cerevisiae Rdh54 K352R mutant variant (S. cerevisiae, UniProt P38086 1-958, K352R)
T3 sequence (looked up): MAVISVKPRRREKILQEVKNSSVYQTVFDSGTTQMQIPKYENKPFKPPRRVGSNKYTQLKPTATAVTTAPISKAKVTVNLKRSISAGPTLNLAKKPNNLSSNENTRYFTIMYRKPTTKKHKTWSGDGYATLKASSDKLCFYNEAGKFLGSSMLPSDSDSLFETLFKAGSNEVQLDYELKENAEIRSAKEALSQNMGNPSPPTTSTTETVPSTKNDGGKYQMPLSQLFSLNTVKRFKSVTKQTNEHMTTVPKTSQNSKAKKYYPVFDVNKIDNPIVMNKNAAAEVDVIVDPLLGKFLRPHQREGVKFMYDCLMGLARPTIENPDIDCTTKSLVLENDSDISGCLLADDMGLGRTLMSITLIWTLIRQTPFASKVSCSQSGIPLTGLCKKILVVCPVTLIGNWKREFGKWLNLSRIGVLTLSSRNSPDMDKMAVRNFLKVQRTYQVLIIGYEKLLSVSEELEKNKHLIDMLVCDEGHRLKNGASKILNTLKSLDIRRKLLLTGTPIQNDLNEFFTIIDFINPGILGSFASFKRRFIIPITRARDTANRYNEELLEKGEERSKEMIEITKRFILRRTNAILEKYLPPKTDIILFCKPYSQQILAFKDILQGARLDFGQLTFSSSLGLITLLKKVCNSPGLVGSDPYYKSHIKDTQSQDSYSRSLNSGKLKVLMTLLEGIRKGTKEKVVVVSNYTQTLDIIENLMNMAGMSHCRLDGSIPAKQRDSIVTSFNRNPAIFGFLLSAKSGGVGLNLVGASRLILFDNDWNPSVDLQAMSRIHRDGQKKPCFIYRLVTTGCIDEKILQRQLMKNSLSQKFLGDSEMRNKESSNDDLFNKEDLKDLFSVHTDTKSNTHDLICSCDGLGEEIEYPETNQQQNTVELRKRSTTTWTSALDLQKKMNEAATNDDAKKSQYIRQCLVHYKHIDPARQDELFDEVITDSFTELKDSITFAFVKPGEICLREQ

Measured: binding result

B1: Schizosaccharomyces pombe Dmc1 (enzyme, S. pombe, UniProt O42634 1-332, looked up)
chain: MEEFAEGNDDEQMIFSDIEDLTAHGIGMTDIIKLKQAGVCTVQGVHMSTKRFLLKIKGFSEAKVDKLKEAASKMCPANFSTAMEISQNRKKVWSISTGSEALNGILGGGIQSMSITEVFGEFRCGKTQMSHTLCVTAQLPRDMGGAEGKVAFIDTEGTFRPDRIKAIAERFGVDADQAMENIIVSRAYNSEQQMEYITKLGTIFAEDGQYRLLIVDSIMALFRVDYSGRGELSERQQKLNIMLARLNHISEEFNVAVFVTNQVQADPGAAMMFASNDRKPVGGHVMAHASATRLLLRKGRGEERVAKLNDSPDMPEAECSYVITPGGIADVS
modifications: covalently coupled to Affi-Gel 15 beads
binds: [1] | [2] | [3]

Reference: paper PMC2650715 (DNA repair, 2008)
